Experimental data: FireProtDB (doi:10.1016/j.jmb.2004.09.091)

Settings: Dictyostelium discoideum, pH 6.7, Urea, Fluorescence, KH2PO4/K2HPO4 50 mM, reversible: Yes

Sequence of Hisactophilin-1 wild type (P13231 whole entry, looked up): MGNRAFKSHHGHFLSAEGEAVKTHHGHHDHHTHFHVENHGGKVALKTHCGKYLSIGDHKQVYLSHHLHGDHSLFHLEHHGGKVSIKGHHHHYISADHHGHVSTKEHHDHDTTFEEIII

For “Hisactophilin-1 wild type (from UniProt P13231)”, the denaturant m value (5 °C) was 2.66 kcal/mol/M, the “denaturant midpoint (higher = more stable)” value (shortened to “denaturant midpoint”) (5 °C) was 2.14 M and the unfolding free energy (5 °C) was 5.37 kcal/mol. The denaturant m value (15 °C) was 2.7 kcal/mol/M, the “denaturant midpoint” value (15 °C) was 2.58 M and the unfolding free energy (15 °C) was 6.5 kcal/mol. The denaturant m value (20 °C) was 2.53 kcal/mol/M, the “denaturant midpoint” value (20 °C) was 2.89 M and the unfolding free energy (20 °C) was 6.71 kcal/mol. The denaturant m value (25 °C) was 2.51 kcal/mol/M, the “denaturant midpoint” value (25 °C) was 2.91 M and the unfolding free energy (25 °C) was 6.68 kcal/mol. For the same substance, the denaturant m value (30 °C) was 2.28 kcal/mol/M, the “denaturant midpoint” value (30 °C) was 2.95 M and the unfolding free energy (30 °C) was 6.08 kcal/mol. For the same substance, the denaturant m value (35 °C) was 2.44 kcal/mol/M, the “denaturant midpoint” value (35 °C) was 2.87 M and the unfolding free energy (35 °C) was 6.43 kcal/mol. The denaturant m value (40 °C) was 2.34 kcal/mol/M, the “denaturant midpoint” value (40 °C) was 2.63 M and the unfolding free energy (40 °C) was 5.67 kcal/mol. The denaturant m value (45 °C) was 2.24 kcal/mol/M, the “denaturant midpoint” value (45 °C) was 2.45 M and the unfolding free energy (45 °C) was 5.05 kcal/mol.
